Results taken from US20250122266A1, “SMART SINGLE-DOMAIN INTRABODIES WITH PRECISION SWITCHES FOR BIOMEDICAL APPLICATIONS” (THE TEXAS A&M UNIVERSITY SYSTEM, priority 2020, published 2025).
Like-named read-outs stand apart in the source and are kept apart here. Each block holds one substance with its values, some of them ahead of it.

Tests used:
[1] = biological target: Recombinant SARS-COV-2 Spike RBD (SARS-COV-2) (UniProt P0DTC2)
[2] = biological target: Recombinant SARS-COV-2 Spike RBD (SARS-COV-2) (UniProt P0DTC2); assay: ELISA on immobilised RBD; read as the value without caffeine
[3] = biological target: YFP-ORAI1 (UniProt Q96D31); assay: cell-based or functional assay
[4] = biological target: NE-tethered mCh-lamin A (UniProt P02545); assay: NE/NP ratio of GFP signal in HeLa cells, before and after light

YFP-ORAI1, sequence (Q96D31 whole entry): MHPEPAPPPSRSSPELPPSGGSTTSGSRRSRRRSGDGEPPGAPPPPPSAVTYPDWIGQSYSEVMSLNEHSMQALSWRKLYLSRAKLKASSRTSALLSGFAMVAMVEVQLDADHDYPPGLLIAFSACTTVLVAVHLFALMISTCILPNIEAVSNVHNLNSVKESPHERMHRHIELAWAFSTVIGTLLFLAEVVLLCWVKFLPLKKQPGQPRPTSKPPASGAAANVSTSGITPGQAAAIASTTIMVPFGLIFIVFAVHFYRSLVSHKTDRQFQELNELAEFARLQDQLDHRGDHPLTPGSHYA
mCherry-COSMO-STIM1ct, sequence (Q13586 other isoform, or with tags, fused parts or gaps): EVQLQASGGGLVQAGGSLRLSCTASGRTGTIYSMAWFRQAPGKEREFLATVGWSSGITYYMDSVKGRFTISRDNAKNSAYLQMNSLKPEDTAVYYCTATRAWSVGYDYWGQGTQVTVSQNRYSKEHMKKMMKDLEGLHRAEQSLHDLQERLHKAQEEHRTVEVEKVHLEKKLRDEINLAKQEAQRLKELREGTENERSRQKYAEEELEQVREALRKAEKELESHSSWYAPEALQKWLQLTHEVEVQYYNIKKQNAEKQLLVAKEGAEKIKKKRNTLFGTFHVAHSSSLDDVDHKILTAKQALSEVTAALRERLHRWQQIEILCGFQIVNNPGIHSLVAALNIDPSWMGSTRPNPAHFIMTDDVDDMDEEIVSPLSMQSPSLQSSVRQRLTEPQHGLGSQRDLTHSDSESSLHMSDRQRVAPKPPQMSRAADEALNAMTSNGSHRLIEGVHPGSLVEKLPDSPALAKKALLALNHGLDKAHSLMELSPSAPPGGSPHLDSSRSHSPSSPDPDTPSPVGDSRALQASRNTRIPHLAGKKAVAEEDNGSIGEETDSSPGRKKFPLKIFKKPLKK

Substance: MBP-COSMO-VHH72
apparent binding affinity [1]: 18 nM | apparent binding affinity [2]: 29 nM

Substance: mCherry-COSMO-STIM1ct (from UniProt Q13586 233-685)
calcium influx (GCaMP6s) after 1 µM caffeine, activation half-life [3]: 1.63 min

increase in the NE/NP ratio after photostimulation [4]: 10%
Substance: GFP-sunbody variant S0 (LOV2 fused to the N-terminus of LaM8) (VHH)
